Literature values in article PMC10451079.

Assays:
NGALR (Mus musculus) = NGALR (Mus musculus) (UniProt Q9D9E0); assay: ligand-cell binding, Scatchard
MC3R = MC3R (UniProt P41968)
MC1R = MC1R (UniProt Q01726)
MC4R = MC4R (UniProt P32245); assay: saturation and competition binding
[1] = target: LRP2 (megalin) (Homo sapiens) (UniProt P98164); assay: SPR
[2] = target: NGALR 1-105 (Homo sapiens) (UniProt Q8WUG5)
megalin (Homo sapiens) = megalin (Homo sapiens) (UniProt P98164)

UniProt Q8WUG5, sequence (Q8WUG5 1-105): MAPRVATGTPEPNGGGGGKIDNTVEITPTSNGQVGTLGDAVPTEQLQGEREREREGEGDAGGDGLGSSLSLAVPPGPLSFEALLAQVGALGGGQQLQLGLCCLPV
UniProt P32245, sequence (P32245 whole entry): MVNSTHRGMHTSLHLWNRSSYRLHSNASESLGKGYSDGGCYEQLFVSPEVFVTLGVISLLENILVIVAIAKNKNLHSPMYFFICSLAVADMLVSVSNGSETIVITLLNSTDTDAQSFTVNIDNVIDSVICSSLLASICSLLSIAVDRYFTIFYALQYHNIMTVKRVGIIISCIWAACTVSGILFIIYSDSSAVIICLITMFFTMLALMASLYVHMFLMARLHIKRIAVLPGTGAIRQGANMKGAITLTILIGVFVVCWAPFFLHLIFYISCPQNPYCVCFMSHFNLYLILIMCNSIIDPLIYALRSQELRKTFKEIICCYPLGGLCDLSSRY
UniProt Q01726, sequence (Q01726 whole entry): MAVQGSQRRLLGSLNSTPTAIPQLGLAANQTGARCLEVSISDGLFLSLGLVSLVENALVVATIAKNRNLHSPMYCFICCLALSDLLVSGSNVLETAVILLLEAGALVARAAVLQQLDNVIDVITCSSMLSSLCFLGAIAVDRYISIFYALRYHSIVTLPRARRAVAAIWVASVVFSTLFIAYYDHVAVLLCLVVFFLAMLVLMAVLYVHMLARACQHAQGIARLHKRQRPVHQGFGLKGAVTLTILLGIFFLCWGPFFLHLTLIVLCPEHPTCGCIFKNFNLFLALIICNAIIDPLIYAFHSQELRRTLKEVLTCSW
UniProt Q9D9E0, sequence (Q9D9E0 whole entry): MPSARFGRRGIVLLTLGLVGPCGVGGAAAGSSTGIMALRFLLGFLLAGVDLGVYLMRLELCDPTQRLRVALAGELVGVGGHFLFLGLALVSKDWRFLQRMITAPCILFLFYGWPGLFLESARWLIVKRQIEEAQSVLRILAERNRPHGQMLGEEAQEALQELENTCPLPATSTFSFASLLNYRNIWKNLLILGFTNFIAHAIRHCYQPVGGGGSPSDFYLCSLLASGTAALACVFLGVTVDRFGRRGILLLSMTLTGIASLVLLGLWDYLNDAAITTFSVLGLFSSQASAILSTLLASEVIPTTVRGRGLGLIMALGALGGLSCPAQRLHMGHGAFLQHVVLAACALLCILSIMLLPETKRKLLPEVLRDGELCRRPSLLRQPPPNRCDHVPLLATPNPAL
UniProt P41968, sequence (P41968 whole entry): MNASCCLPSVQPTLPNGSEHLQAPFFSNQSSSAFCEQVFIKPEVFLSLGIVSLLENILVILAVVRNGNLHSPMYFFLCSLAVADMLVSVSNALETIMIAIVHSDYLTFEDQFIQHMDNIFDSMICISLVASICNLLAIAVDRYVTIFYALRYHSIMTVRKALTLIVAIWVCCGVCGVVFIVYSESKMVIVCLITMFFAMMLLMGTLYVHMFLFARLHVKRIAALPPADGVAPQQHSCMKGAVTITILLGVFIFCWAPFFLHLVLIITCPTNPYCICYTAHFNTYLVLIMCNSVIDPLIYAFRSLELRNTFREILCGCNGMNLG

LCN2 (24p3) (from UniProt P11672)
Kd (NGALR (Mus musculus)): 0.092 nM

LCN2 (from UniProt P11672)
Kd (MC3R): 82.1 nM | Kd (MC1R): 87 nM | Kd (MC4R): 51.4 nM

LCN2 (from UniProt P80188)
Kd [1]: 60 nM

LCN2 with ferric-enterobactin (from UniProt P80188)
Kd [2]: 20000 nM

α1M (from UniProt P02760)
Kd (megalin (Homo sapiens)): 420 nM
